Assay results from the RNAGym collection of RNA variant scans (doi:10.1073/pnas.2313332121).
Fewer inactive variants are shown than the library holds.

B1: TPR 5TU (parent)
chain: GGAUCUUCUCGAUCUAACAAAAAAGACAAAUCUGCCACAAAGCUUGAGAGCAUCUUCGGAUGCAGAGGCGGCAGCCUUCGGUGGCGCGAUAGCGCCAACGUUCUCAACUAUGACACGCAAAACGCGUGCUCCGUUGAAUGGAGUUUAUCAUG

Variants of: B1
Assay: polymerase ribozyme fitness, log enrichment relative to wild type (log ratio); higher = more active; in vitro selection for triplet polymerase activity
Method in brief: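 Mutant libraries of each subunit of a heterodimeric triplet polymerase ribozyme were built by PCR and transcribed. Each library went through one round of in vitro selection in triplicate: annealing with biotinylated primer, partner subunit and triplets, frozen incubation at −7 °C, gel excision of extended constructs, streptavidin-bead capture and RT-PCR. Input and output libraries were Illumina-sequenced; only genotypes with ≥10 input reads and ≥1 read per output were kept. Fitness is log2(genotype enrichment/wild-type enrichment), using inverse-variance-weighted replicate averages.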

Row | Variant | polymerase ribozyme fitness (log ratio)
1 | GGAUCUUCUCGAUCUAACAAAAAAGACAAAACUGCCACAAAGCUUGAGAGCAUCUUCGGAUGCAGAGGCGGCAGCCUUCGGUGGUGCGAUAGCGCCAACGUUCUCAACUAUGAUACGCAAAACGCGUGCUCCGUUGAAUGGAGUUUAUCAUG | -1.15
2 | GGAUCUUCUCGAUCUAACAAAAAAGACAAAACUGCCACAAAGCUUGAGAGCAUCUUCGGAUGCAGAGGCGGCAGCCUUCGGUGGCACGAUAGCGCCAACGUUCUCAACUAUGACACGCAAAACGCGUGCUCCGCUGAAUGGAGUUUAUCAUG | -0.431
3 | GGAUCUUCUCGAUCUAACAAAAAAGACAAAACUGCCACAAAGCUUGAGAGCAUCUUCGGAUGCAGAGGCGGCAGCCUUCGGUGGCUCGAUAGCGCCAACGUUCUCAACUAUGACACGCAAAACGCGUGCUCCGUUGAAUGGAGUUUAUCAUG | -0.886
4 | GGAUCUUCUCGAUCUAACAAAAAAGACAAAACUGCCACAAAGCUUGAGAGCAACUUCGGAUGCAGAGGCGGCAGCCUUCGGUGGCGCGAUAGCGUCAACGUUCUCAACUAUGACACGCGAAACGCGUGCUCCGUUGAAUGGAGUUUAUCAUG | -0.866
5 | GGAUCUUCUCGAUCUAACAAAAAAGACAAAACUGCCACAAAGCUUGAGAGCAUCUUCGGAUGCAGAGGCGGCAGCCUUCGGUGGGGCGAUAGCGCGAACGUUCUCAACUAUGACACGCAAAACGCGUGCUCCGUUGAAUGGCGUUUAUCAUG | ≤ -4.2
6 | GGAUCUUCUCGAUCUAACAAAAAAGACAAAACUGCCACAAAGCUUGAGAGCAUCAUCGGAUGCAGAGGCGGCAGCCUUCGGUGGCGCGAUAGCGCCUACGUUCUCAACUAUGACACGCAAAACGCGUGCUCCGUUGAAUGGAGUGUAUCAUG | -0.219
7 | GGAUCUUCUCGAUCUAACAAAAAAGACAAAACUGCCACAAAGCUUGAGACCAUCUUCGGAUGCAGAGGCGGCAGCCUUCGGUGGUGCGAUAGCGCCAACGUUCUCAACUAUGACACGCAAAACGCGUGCUCCGUUGAAUGGAGUUUAUCAUG | -3.83
8 | GGAUCUUCUCGAUCUAACAAAAAAGACAAAACUGCCACAAAGCUUGAGAAGAUCUUCGAAUGCAGAGCCGGCAGCCUUCGGUGGCCCGAUAGCUCCAACGUUCUCAACUAUGACACGCAAAACUCGUGCUCCGUUGAAUGGAGUUUAUCAUG | ≤ -4.2
9 | GGAUCUUCUCGAUCUAACAAAAAAGACAAAACUGCCACAAAGCUUGAGAGCAUCUUCGGAUGCAGAGGCGGCAGCCUUCGGUGGCGGGAUAGCGCCAACGUUCUCAACUAUGAAACGCAAAACGCGUGCUCCGUUGAAUGGAGUUUAUCAUG | -4.03
10 | GGAUCUUCUCGAUCUAACAAAAAAGACAAAACUGCCACAAAGCUUGAGAGCAUCUUCGGAUGCAGAGGCGGCAGCCUUCGCUGGCGCGAUAGCGCGAACGUUCUCAACUAAGACACGCAAAACGCAUGCUCCGUUGAAUGGAGUUUAUCAUG | ≤ -4.2
11 | GGAUCUUCUCGAUCUAACAAAAAAGACAAAACUGCCACAAAGCUUGAGAGCAUCUUCGGAUGCAGAGGCGGCAGCCUUCGGUGGCGCGAUAGAGCCAACGUUCUCAACUAUGACCCGCAAAACGCGUGCUCCGUUGAAUGGAGUUUAUCAUG | -1.71
12 | GGAUCUUCUCGAUCUAACAAAAAAGACAAAACUGCCACAAAGCUUGAGAGCAUCUUCCGAAGCAGAGGCGGCAGCCUUCGGUGGCGGGAUAGCGCUAAUGUUCUCAACUAUGAGACGCAAAACGCGUGCUCCGUUGAAUGGAGUUUAUCGUG | ≤ -4.2
13 | GGAUCUUCUCGAUCUAACAAAAAAGACAAAACUGCCACAAAGCUUGAGAGCAUCUUCGGAUGCAGAGGCGGCAGCCUUCGGUGGCGCGAUAGCGCCAACGUUCUCAACUAUGACACGCAAAACGAGUGCUCCGUUGAAUGGAGUUUAUCAUG | 0.0765
14 | GGAUCUUCUCGAUCUAACAAAAAAGACAAAACUGCCACAAAGCUUGACAGCAUCUUCGGAUGCAGAGGCGGCAGCCUUCGGUGGAGCGAUAGCGCCAACGUUCUCAACUAUGACACGCAAAACGCGUGCUCCGUUGAAUGGAGUUUAUCAUG | -2.98
15 | GGAUCUUCUCGAUCUAACAAAAAAGACAAAACUGCCACAAAGCUUGAGAGCAUCUUCCGAUGCAGAGGCGGCAGACUUCGGUGGCGCGAUAGCGCCAACGUUUUCAACAGUGACACGCAAAACGCGUGCUCCGUUGAAUGGAGUUUAUCAUG | ≤ -4.2
16 | GGAUCUUCUCGAUCUAACAAAAAAGACAAAACUGCCACAAAGCUAGAGAGCAUCGUCGGAUGCAGAGGCGGCAGCCUUCGGUGGUGCGAUAGCGGCAACGUUCUCAACUAUGACACGCAGAACGCGUGCUCCGUUGAAUGGUGUUUAUCAUG | -4.06
17 | GGAUCUUCUCGAUCUAACAAAAAAGACAAAACUGCCACAAAGCUUGAGAGCAUCUUCGGAUGCAGAGGCGGCAGCCUUCGGUGGCGCGAUAGCGCCAACGUUCUCAACUAUGACACGCAAAACGCGUGCUACGUUGAAUGGAGUUUAUCAUG | -1.89
18 | GGAUCUUCUCGAUCUAACAAAAAAGACAAAACUGCCACAAAGCUUGAGAGCAUCUUCGGAUGCAGAGGCGGCAGCCUUCGGUGGAGCGAUAGCGCCAACGUUCUCAACUAUGACACGCAAAACGCGUGCUCCGUUGAAUGGAGUUUAUCAUG | -0.724
19 | GGAUCUUCUCGAUCUAACAAAAAAGACAAAACUGCCACAAAGCUUGAGAGCAACUUCGGAUGCAGAGGCGGCAGCCUUCGGUGGCGCGAUAGCGCCAACGUUCUCAACUAUGACACGCAAAACGCGUGCUCCGUUGAAUGGAGUUUAUCAUG | -0.327
